Experimental findings from doi:10.1101/2020.10.28.358481 are described below.

For the data set, the target named is nsp12 (RdRp catalytic subunit);nsp8;nsp7 (SARS-CoV-2;SARS-CoV-2;SARS-CoV-2, UniProt P0DTD1;P0DTD1;P0DTD1 4393-5324;3943-4140;3860-3942, ||). Briefly: cryo-EM.

B1: scaffold 1 (RMP at -3) (structured_RNA)
RNA 1: UUUUCAUGCAUCGCGUAGGCUCAUACCGUAUUGAGACCUUUUGGUCUCAAUACGGUA
RNA 2: UGAGCCUACGCGAUG
modifications: strand 2 position 13 (written A) is remdesivir monophosphate (RMP, 1'-cyano)
B1: the binding result is listed as “binds”.

B2: scaffold 2 (RMP at -4) (structured_RNA)
RNA 1: UUUUCAUGCACUGCGUAGGCUCAUACCGUAUUGAGACCUUUUGGUCUCAAUACGGUA
RNA 2: UGAGCCUACGCAGUG
modifications: strand 2 position 12 (written A) is remdesivir monophosphate (RMP, 1'-cyano); oligo R-4
For the molecule B2, the binding result is recorded as “binds”.
